Entries after “also recorded” stand apart in the source; their conditions may differ.
System: ES-2 cells
Assay: Chemotherapy resistance of ES-2 cells on protein-coated plates (Cell-Titre Glo viability, % growth benefit)
Format: cell-based
Excerpt: (A) Increased desmoplasia is correlated with POSTN expression and primary chemotherapy-resistance. Representative high magnification images of hematoxylin and eosin (H&E) staining of tumor specimens (upper panels) and POSTN ISH images (lower panel) are shown. Desmoplasia scores were defined as follows: 0=no desmoplasia, 1=few scattered desmoplastic foci abutting cancer cells, 2=several desmoplastic foci abutting cancer cells or moderate confluent (wider) desmoplasia, but not present throughout the section, 3=desmoplastic reaction throughout section, associated with most cancer cells. Labels: DS=desmoplastic stroma, NS=normal stroma, TC =tumor cells. Arrows point to examples of tumor cells. A dotted line encircles a region containing tumor cells. Size bars, 100 μm. (B) Summary of desmoplasia scores in 21 Plat-S primary, 18 Plat-R primary, and 21 Plat-R recurrent tumor specimens; (C) POSTN promotes chemotherapy-resistance in chemotherapy-sensitive ES2 ovarian cells in vitro. 96-well plates were coated with recombinant protein FN1 or POSTN or left uncoated before cells were plated into each well. 10 μM carboplatin or 10 nM taxol was then added to each well on the next day. Cell-Titre Glo® reagents were added at 72 hours after compound treatment to measure cell viability. The viability in coated wells was then compared with viability in uncoated wells to calculate % growth benefit. […]

B1: POSTN: recombinant full-length POSTN (Cat #3548-F2, R&D Systems) used to coat culture plates (protein, UniProt Q15063 22-836, looked up)
Periostin: NNHYDKILAHSRIRGRDQGPNVCALQQILGTKKKYFSTCKNWYKKSICGQKTTVLYECCPGYMRMEGMKGCPAVLPIDHVYGTLGIVGATTTQRYSDASKLREEIEGKGSFTYFAPSNEAWDNLDSDIRRGLESNVNVELLNALHSHMINKRMLTKDLKNGMIIPSMYNNLGLFINHYPNGVVTVNCARIIHGNQIATNGVVHVIDRVLTQIGTSIQDFIEAEDDLSSFRAAAITSDILEALGRDGHFTLFAPTNEAFEKLPRGVLERIMGDKVASEALMKYHILNTLQCSESIMGGAVFETLEGNTIEIGCDGDSITVNGIKMVNKKDIVTNNGVIHLIDQVLIPDSAKQVIELAGKQQTTFTDLVAQLGLASALRPDGEYTLLAPVNNAFSDDTLSMDQRLLKLILQNHILKVKVGLNELYNGQILETIGGKQLRVFVYRTAVCIENSCMEKGSKQGRNGAIHIFREIIKPAEKSLHEKLKQDKRFSTFLSLLEAADLKELLTQPGDWTLFVPTNDAFKGMTSEEKEILIRDKNALQNIILYHLTPGVFIGKGFEPGVTNILKTTQGSKIFLKEVNDTLLVNELKSKESDIMTTNGVIHVVDKLLYPADTPVGNDQLLEILNKLIKYIQIKFVRGSTFKEIPVTVYTTKIITKVVEPKIKVIEGSLQPIIKTEGPTLTKVKIEGEPEFRLIKEGETITEVIHGEPIIKKYTKIIDGVPVEITEKETREERIITGPEIKYTRISTGGGETEETLKKLLQEEVTKVTKFIEGGDGHLFEDEEIKRLLQGDTPVRKLQANKKVQGSRRRLREGRSQ
cell growth with coating alone (ES-2 cells on coated plates, in the absence of chemotherapy treatment): small increase in cell growth
resistance to carboplatin or paclitaxel treatment (viability in coated wells vs uncoated wells, % growth benefit) (ES-2 ovarian cancer cells on coated plates, 10 μM carboplatin or 10 nM paclitaxel, viability at 72 hours): became resistant to carboplatin and paclitaxel treatment; also recorded: significantly more resistant to carboplatin or paclitaxel treatment

Reference: patent US20170253933A1, “COMPOSITIONS AND METHODS FOR TREATING AND DIAGNOSING CHEMOTHERAPY-RESISTANT CANCERS” (Genentech, Inc., priority 2014, published 2017)
